Target: Isu1 (mature, residues 36-165) with the C-terminal His tag (S. cerevisiae) (UniProt Q03020)
Experiment: native MS

B1: Hsc20 without tag, co-expressed with Isu1 and Ssq1* (natural protein)
chain: TSTFYELFPKTFPKKLPIWTIDQSRLRKEYRQLQAQHHPDMAQQGSEQSSTLNQAYHTLKDPLRRSQYMLKLLRNIDLTQEQTSNEVTTSDPQLLLKVLDIHDELSQMDDEAGVKLLEKQNKERIQDIEAQLGQCYNDKDYAAAVKLTVELKYWYNLAKAFKDWAPGKQLEMNH
In the case of B1, the stoichiometry N is reported as 1.
